From publication PMC12065913

Assays:
[1] = target: AceE fragment 2, stalled nascent chain (E. coli) (UniProt P0AFG8); assay: optical tweezers with two-color confocal single-molecule fluorescence; single stalled ribosome-nascent chain complexes tethered between beads by DNA handles; 100 nM labelled TF and 100 nM labelled DnaK in solution, with or without 17 nM DnaJ and 10 nM GrpE; TICO buffer, 1 mM ATP and regeneration system
[2] = target: AceE fragment 5, stalled nascent chain (E. coli); assay: as above

UniProt P0AFG8, sequence (P0AFG8 1-200): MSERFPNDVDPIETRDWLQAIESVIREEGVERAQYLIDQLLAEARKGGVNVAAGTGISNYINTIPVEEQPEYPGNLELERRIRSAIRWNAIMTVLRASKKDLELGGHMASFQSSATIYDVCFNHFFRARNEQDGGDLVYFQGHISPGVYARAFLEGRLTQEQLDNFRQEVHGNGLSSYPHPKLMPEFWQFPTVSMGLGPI

| Substance | binding time (more folded nascent chains) [1] | residence time (nascent chains folded by more than one-third) [2] | residence time (nascent chains less than one-third folded) [2] |
| --- | --- | --- | --- |
| TF-99C, ATTO647N labelled (from UniProt P0A850 1-432) (natural protein) | > 50 s | – | – |
| DnaK-290C, ATTO532 labelled (from UniProt P0A6Y8 1-638) (natural protein) | – | > 10 s | < 5 s |
